Assay results: the supplement of paper PMC7125110
± gives the standard error. For some of these results: Fewer inactive variants are shown than the library holds.

B1: glmS ribozyme (parent)
chain: AUAAAAGCGCCAGAACUACAGAAAUGUAGUUGACGAGGAGGAGGUUUAUCGAAUUUUCGGCGGAUGCCUCCAAA

Tests used:
Conditions in all cases: with glucosamine-6-phosphate
[1] = variants of: B1; test: kcat; higher = faster cleavage; RNA array
In short: (§1)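 Barcoded ribozyme variants were transcribed in situ on sequenced MiSeq chips by E. coli RNA polymerase. At 37 °C, a hybridised Cy3 probe tracked them while glucosamine-6-phosphate (40 μM to 10 mM) in HEPES/KCl/Mg(OAc)2 buffer flowed in and tiles were imaged over ~14 h. Per-tile medians of signals normalised to baseline and to non-cleaving reference variants were fit to one- or two-exponential decays, giving kobs. kcat and KM came from weighted Michaelis–Menten fits across concentrations.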

[2] = variants of: B1; test: KM; higher = weaker cofactor use; RNA array
In short: as §1

[3] = variants of: B1; test: self-cleavage kobs at 2500 uM GlcN6P; higher = faster cleavage; RNA array
In short: as §1

[4] = variants of: B1; test: self-cleavage kobs at 10000 uM GlcN6P; higher = faster cleavage; RNA array
In short: as §1

[5] = variants of: B1; test: self-cleavage kobs at 40 uM GlcN6P; higher = faster cleavage; RNA array
In short: as §1

[6] = variants of: B1; test: self-cleavage kobs at 640 uM GlcN6P; higher = faster cleavage; RNA array
In short: as §1

[7] = variants of: B1; test: self-cleavage kobs at 160 uM GlcN6P; higher = faster cleavage; RNA array
In short: as §1

Row | Variant | kcat [1] [s⁻¹] | KM [2] [µM] | self-cleavage kobs at 2500 uM GlcN6P [3] [s⁻¹] | self-cleavage kobs at 10000 uM GlcN6P [4] [s⁻¹] | self-cleavage kobs at 40 uM GlcN6P [5] [s⁻¹] | self-cleavage kobs at 640 uM GlcN6P [6] [s⁻¹] | self-cleavage kobs at 160 uM GlcN6P [7] [s⁻¹]
1 | A12G U65G C67A | 0.000136 ± 1.4e-05 | 3010 ± 610 | 6.02e-05 ± 1.2e-05 | 0.000108 ± 3.2e-05 |  |  | 
2 | A12U G40A C71U | 0.101 ± 0.05 |  |  | 0.116 ± 0.047 | 0.00209 ± 0.0003 | 0.0194 ± 0.007 | 
3 | A12G A53C | 0.000173 ± 3.8e-05 | 2220 ± 1100 | 7.64e-05 ± 8.5e-06 | 0.000157 ± 1.5e-05 |  | 5e-05 ± 6.8e-06 | 
4 | A12U G37U | 3.51e-05 ± 1.1e-05 |  |  |  |  |  | 
5 | C11U U47G | 0.000176 ± 3.3e-05 |  | 0.000191 ± 3.3e-05 | 0.000149 ± 2.2e-05 |  | 7.97e-05 ± 1.3e-05 | 
6 | G13A U30C | 0.000676 ± 0.00014 | 2010 ± 830 | 0.000511 ± 9.2e-05 | 0.00051 ± 9.1e-05 |  | 0.000158 ± 3.2e-05 | 
7 | G13A U30A | 0.000292 ± 4.6e-05 | 3630 ± 960 | 0.000128 ± 2.3e-05 | 0.000202 ± 5.4e-05 |  | 3.94e-05 ± 1.3e-05 | < 1e-05
8 | A12U U55C | 0.0176 ± 0.0056 | 464 ± 200 | 0.0186 ± 0.0045 | 0.0162 ± 0.0029 | 0.0016 ± 0.00016 | 0.0204 ± 0.0053 | 0.00304 ± 0.00062
9 | A12C G13C | 6.35e-05 ± 2.1e-06 | 1030 ± 240 | 4.89e-05 ± 2.3e-05 | 5.73e-05 ± 7.8e-06 |  |  | 
10 | A12G A48G | 2.09e-05 ± 3.3e-06 |  |  |  | < 1e-05 |  | 
11 | A12C G44A | 0.000291 ± 2.6e-05 | 1580 ± 270 | 0.000204 ± 4e-05 | 0.00024 ± 3.8e-05 |  | 8.35e-05 ± 1.2e-05 | 
12 | A12C G44C | 4.97e-05 ± 2.4e-06 | 4150 ± 610 |  | 3.51e-05 ± 7.6e-06 |  |  | < 1e-05
13 | A12G G29A | 0.000356 ± 6.4e-05 | 7170 ± 1900 | 8.7e-05 ± 1.7e-05 | 0.000213 ± 4.3e-05 |  | 3.29e-05 ± 1e-05 | 
14 | A12G G29U | 0.000345 ± 2.6e-05 | 3740 ± 440 | 0.000134 ± 1.9e-05 | 0.000255 ± 4.1e-05 |  | 5.19e-05 ± 7.9e-06 | 
15 | A12C U69A | 0.000833 ± 0.00013 | 4330 ± 1100 | 0.00027 ± 4.6e-05 | 0.000614 ± 9.4e-05 |  | 0.000117 ± 2.1e-05 | 
16 | A12C G66A | 0.00855 ± 0.0022 | 1580 ± 570 | 0.00753 ± 0.0014 | 0.00648 ± 0.0015 | 0.00028 ± 7e-05 | 0.00241 ± 0.00027 | 0.000705 ± 0.00014
